The results in this text go back to patent publication US20190314479A1.

This assay addresses HLA-A2 molecules. Nature of the assay: T2A2 peptide binding assay to HLA-A2.

B1: HPV-16 E7 native peptide E7-1 (E7 11-19) (peptide)
peptide: YMLDLQPET
modifications: not checked
Take B1: the T2A2 Binding was 1100.

B2: HPV-16 E6 native peptide E6-3 (E6 90-99) (peptide)
peptide: QQYNKPLCDL
modifications: not checked
For the molecule B2, the T2A2 Binding came to 1020.
